B1: HDV Ribozyme (parent)
chain: GGCCGGCAUGGUCCCAGCCUCCUCGCUGGCGCCGGCUGGGCAACAUUCCGAGGGGACCGUCCCCUCGGUAAUGGCGAAUGGGACCCA

Experimental findings from the RNAGym collection of RNA variant scans (doi:10.7554/elife.80360) are described below.

Variants of B1 are the subject of the data set. The data set can be described thus: self-cleavage, relative activity (ratio to wild type); higher = more cleavage; co-transcriptional.
As to GGACGGUAUGGUCCCAGCCUCCUCGCUGGCGCCGGCUGGGCAACAUUCCGAGGGGACCGUCCCCUCGGUAAUGGCGAAUGGGACCCA, the self-cleavage worked out at 0.188.

For GUCCGGCAUGGUCCCAGCCUCCUCGCUGGCGCCGGCUGGGCAACAUUCCGAGGGGACCUUCCCCUCGGUAAUGGCGAAUGGGACCCA, the self-cleavage came out at 0.128.

Take GUCCGGCAUGGACCCAGCCUCCUCGCUGGCGCCGGCUGGGCAACAUUCCGAGGGGACCGUCCCCUCGGUAAUGGCGAAUGGGACCCA: the self-cleavage amounted to 0.17.

GUCCGGCAUGGUCCCAGCCUCCCCGCUGGCGCCGGCUGGGCAACAUUCCGAGGGGACCGUCCCCUCGGUAAUGGCGAAUGGGACCCA: the self-cleavage came to 0.112.

For GGACGGCAUGGUCCCAGCCUCCUAGCUGGCGCCGGCUGGGCAACAUUCCGAGGGGACCGUCCCCUCGGUAAUGGCGAAUGGGACCCA, the self-cleavage was determined as 0.0268.

In the case of GGACGGCAUGGUCCCAGCCUCCUUGCUGGCGCCGGCUGGGCAACAUUCCGAGGGGACCGUCCCCUCGGUAAUGGCGAAUGGGACCCA, the self-cleavage came out at 0.0755.

As to GUCCGGCAUGGUCCCAGCCUCCUCGCUGGCGCCGGCUGGGCAACAUUCCGAGGGGACCGUCCCCUCGAUAAUGGCGAAUGGGACCCA, the self-cleavage came out at 0.0264.

In the case of GGACGGCAUGGUCCCAGCCUCCUCGCUGGCGCCGGCUGGGCAACAUUCCGAGGGGACCGUCCCCUCGGUAAUGGCGAAUGGGACCCA, the self-cleavage is 0.641.

Take GUCCGGCAUGGUCCCAGCCUCCUCGCUGGCGCCGGCUGGGCAACAUUCCGAGGGGACCGGCCCCUCGGUAAUGGCGAAUGGGACCCA: the self-cleavage amounted to 0.0831.

With GUCCGGCAUGGUCCCAGCCUCCUCGCUGGCGCCGGCUGGGCAACAUUCCGAGGGGACCGACCCCUCGGUAAUGGCGAAUGGGACCCA, the self-cleavage was 0.0396.

Consider GGACGGCAUGGUCUCAGCCUCCUCGCUGGCGCCGGCUGGGCAACAUUCCGAGGGGACCGUCCCCUCGGUAAUGGCGAAUGGGACCCA, for which the self-cleavage is 0.697.

Turning to GGACGGCAUGGUCACAGCCUCCUCGCUGGCGCCGGCUGGGCAACAUUCCGAGGGGACCGUCCCCUCGGUAAUGGCGAAUGGGACCCA, the self-cleavage stood at 0.313.

For GGACGGCAUGGUCCCAGCCUCCUCGCUGGCGCCGGCUGGGCAACAUUCCGAGGGGACCGUCCCCUCGGUAAUGGCGGAUGGGACCCA, the self-cleavage was determined as 0.313.

Consider GGACGGCAUGGUCCCAGCCUCCUCGCUGGCGCCGGCUGGGCAACAUUCCGAGGGGACCGUCCCCUCGGUAAUGGCGCAUGGGACCCA, for which the self-cleavage is 0.171.

For the variant GGACGGCAUGGUCCCAGCCUCCUCGCUGGCGCCGGCUGGGCAACAUUCCGAGGGGACCGUCCCCUCGGUAAUGGCGUAUGGGACCCA, the self-cleavage amounted to 0.224.

As to GUCCGGCAUGGUCCCAGCCUCCUCGCUGGCGCCGGCUGGGCAACAUUCCGAGGGGACCGUCCCCUCGGUAAAGGCGAAUGGGACCCA, the self-cleavage was found to be 0.0287.

For GGACGGCAUGGUCCCAGCCUCCUCGCUGGCGCCGGCUGGGCGACAUUCCGAGGGGACCGUCCCCUCGGUAAUGGCGAAUGGGACCCA, the self-cleavage came out at 0.0615.

On to GUCCGGCAUGGUCCCAGCCUCCUCGCUGGCGCCGGCGGGGCAACAUUCCGAGGGGACCGUCCCCUCGGUAAUGGCGAAUGGGACCCA, for which the self-cleavage turned out to be 0.0422.

For GUCCGGCAUGGUCCCAGCCUCCUCGCUGGCGCCGGCCGGGCAACAUUCCGAGGGGACCGUCCCCUCGGUAAUGGCGAAUGGGACCCA, the self-cleavage is 0.0801.

Turning to GUCCGGCAUGGUCCCAGCCUCCUCGCUGGCGCCGGCAGGGCAACAUUCCGAGGGGACCGUCCCCUCGGUAAUGGCGAAUGGGACCCA, the self-cleavage stood at 0.0378.

For GGACGGCAUGGUCCCAGCCUCCUCGCUGGCGCCGGCUGGGCAACAUUCCGAGGGGACCGUCCCCUCGGUAAUGGCGAAUGGGUCCCA, the self-cleavage worked out at 0.0821.

As to GUCCGGCAUGGUCCCAGCCUCCUCGCUGGCGCCGGCUGGGCAACAUACCGAGGGGACCGUCCCCUCGGUAAUGGCGAAUGGGACCCA, the self-cleavage amounted to 0.

Consider GUCCGGCAUGGUCCCAGCCUCCUCGCUGGCGCCGGCUGGGCAACAUCCCGAGGGGACCGUCCCCUCGGUAAUGGCGAAUGGGACCCA, for which the self-cleavage came to 0.

GUCCGGCAUGGUCCCAGCCUCCUCGCUGGCGCCGGCUGGGCAACAUGCCGAGGGGACCGUCCCCUCGGUAAUGGCGAAUGGGACCCA: the self-cleavage was determined as 0.119.

For GGACGGCAUGGUCCCAGCCUCCUCGCUGGCGCCGGCUGGGCAACAUUCCGAGGGGACCGUCCCCUCGGUAAUGGCGAUUGGGACCCA, the self-cleavage was 0.0627.

GUCCGGCAUGGUCCCAGCCUCCUCGCUGGCGCCGGCUGGGCAACAUUCCGAGGGGACCGUCCCCUCGGCAAUGGCGAAUGGGACCCA: the self-cleavage was 0.

On to GUCCGGCAUGGUCCCAGCCUCCUCGCUGGCGCCGGCUGGGCAACAUUCCGAGGGGACCGUCCCCUCGGUAAUGCCGAAUGGGACCCA, for which the self-cleavage came out at 0.

With GGACGGCAUGGUCCCAGCCUCCUCGCUGGCGCCGGCUGGGCAACGUUCCGAGGGGACCGUCCCCUCGGUAAUGGCGAAUGGGACCCA, the self-cleavage came out at 0.469.

For the variant GGACGGCAUGGUCCCAGCCUCCUCGCUGGCGCCGGCUGGGCAACCUUCCGAGGGGACCGUCCCCUCGGUAAUGGCGAAUGGGACCCA, the self-cleavage was 0.0482.

Consider GUCCGGCAUGGUCCCAGCCUCCUCGCCGGCGCCGGCUGGGCAACAUUCCGAGGGGACCGUCCCCUCGGUAAUGGCGAAUGGGACCCA, for which the self-cleavage is 0.0198.

Turning to GUCCGGCAUGGUCCCAGCCUCCUCGCAGGCGCCGGCUGGGCAACAUUCCGAGGGGACCGUCCCCUCGGUAAUGGCGAAUGGGACCCA, the self-cleavage was found to be 0.0767.

Take GGACGGCAUGGUCCCAGCAUCCUCGCUGGCGCCGGCUGGGCAACAUUCCGAGGGGACCGUCCCCUCGGUAAUGGCGAAUGGGACCCA: the self-cleavage came to 0.0199.
